Test results as given in article PMC6760441, “Structural insights into stressosome assembly” (IUCrJ, 2019).

B1: RsbRA (Bacillus subtilis), full length, residues 1-274, native (pET-22b), of the RsbRA-RsbS complex (natural protein, Bacillus subtilis strain 168, UniProt P42409 1-274, looked up)
chain: MMSNQTVYQFIAENQNELLQLWTDTLKELSEQESYQLTDQVYENISKEYIDILLLSVKDENAAESQISELALRAVQIGLSMKFLATALAEFWKRLYTKMNDKRLPDQESTELIWQIDRFFSPINTEIFNQYSISWEKTVSLQKIALQELSAPLIPVFENITVMPLVGTIDTERAKRIMENLLNGVVKHRSQVVLIDITGVPVVDTMVAHHIIQASEAVRLVGAKCLLAGIRPEIAQTIVNLGIDLSQVITKNTLQKGIQTALEMTDRKIVSLGE
notes: RsbRA, Bacillus subtilis strain 168 (ATCC 23857), full length, residues 1-274; N-terminal nonheme globin domain and C-terminal STAS domain; also called native RsbRA; source: E. coli BL21 Star (DE3), co-purified with 6xHis-thioredoxin-RsbS (IMAC, TEV cleavage, SEC)

Columns and labels:
[1] = biological target: the molecule itself; assay: cryo-EM structure; RsbRA-RsbS complex at 0.5 mg/ml in 20 mM HEPES pH 7.5, 50 mM NaCl, 0.2 mM TCEP, 5% glycerol; single-particle reconstruction with C1, D2 or I restraints
[2] = biological target: the molecule itself; assay: SEC-MALS; 200 ul of 1 mg/ml RsbS on a Superdex 200 analytical column; miniDAWN TREOS II MALS and Optilab rEX detectors
[3] = biological target: B1; assay: cryo-EM structure; RsbRA-RsbS complex at 0.5 mg/ml in 20 mM HEPES pH 7.5, 50 mM NaCl, 0.2 mM TCEP, 5% glycerol; single-particle reconstruction with C1, D2 or I restraints; settings: both partners purified
[4] = biological target: the molecule itself; assay: crystal structure; RsbS 10 mg/ml; micro-batch at 20 C; 35% MPD, 100 mM MES/sodium hydroxide pH 6.0, 200 mM lithium sulfate; space group I23, five monomers in the asymmetric unit

binding result [3] | Binder | binding result [1] | stoichiometry N [2] | stoichiometry N [4]
 | B1 | binds |  | 
binds | RsbS (Bacillus subtilis), full length, residues 1-121, tag removed (natural protein, Bacillus subtilis strain 168, UniProt P42410 1-121, looked up, phosphoserine at 59 (seen in the crystal structure and by peptide mass fingerprinting; likely phosphorylated during expression in E. coli), RsbS, Bacillus subtilis strain 168 (ATCC 23857), full length, residues 1-121; only a STAS domain; Dimer in solution by SEC-MALS; 60 monomers form an icosahedron in the crystal; The model holds residues 4-119 (chain A) or 5-119 (other chains); A selenomethionine-labelled form was used for phasing; also called native RsbS; Bs RsbS; source: E. coli BL21 Star (DE3), purified (IMAC, TEV cleavage, …)) MRHPKIPILKLYNCLLVSIQWELDDQTALTFQEDLLNKIYETGANGVVIDLTSVDMIDSFIAKVLGDVITMSKLMGAKVVLTGIQPAVAVTLIELGIALEEIETALDLEQGLETLKRELGE |  | 2 | 60
 | RsbS S59A mutant (natural protein, Bacillus subtilis, RsbS, Bacillus subtilis, with S59A, which restricts phosphorylation; the construct is not described) MRHPKIPILKLYNCLLVSIQWELDDQTALTFQEDLLNKIYETGANGVVIDLTSVDMIDAFIAKVLGDVITMSKLMGAKVVLTGIQPAVAVTLIELGIALEEIETALDLEQGLETLKRELGE |  | 2 | 
